Laboratory results published in publication doi:10.1101/2025.03.12.642685.
Where “and” joins values, the source holds several entries; their conditions need not be identical. Equal values may be shown once.

Key:
[1] = molecular target: PorN (P. gingivalis (endogenous in P. gingivalis W50 EK18)); test: cryo-EM structure
[2] = molecular target: PorK (P. gingivalis (endogenous in P. gingivalis W50 EK18)); test: cryo-EM structure

Substance | stoichiometry N [1] | stoichiometry N [2]
PorN (natural protein) | 31 to 35 (2×) and 33 | 
PorK (natural protein) |  | 31 to 35 (2×) and 33
